Data on 41 sequences can be found in the nanobody polyreactivity screen of Harvey et al. (2022).

A short description of the data set: yeast display, Sf9 membrane polyspecificity reagent, FACS + sequencing; frameworks hold sequencing errors. In a few lines: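 Sorting gates, low and high (top ~1%), were placed on anti-HA fluorescence to track expression and on streptavidin fluorescence to track reagent binding. A clone's polyreactivity label is taken from the gate it came out of. The reagent was 10% biotinylated, detergent-solubilized Sf9 membrane, applied for 1 hour at 4 °C to galactose-induced yeast display cells.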
Turning to “QVQLVESGGGLVQAGGSLRLSCDASGFNIASYDMGWYRQAPGKERELVAAISKGGGRTYYADSVKGRFTISRDNAKNTVYLQMKSLKPEDTAVYYCAAYAPYPRRAYDYWGQGTQVTVSS”, the “polyreactivity (PSR sort gate)” value is given as “low polyreactivity”.
“QVQLVESGGGLVQAGGSLRLSCDASGFTFRVYAMGWYRQAPGKEREFVASIRSNDGRTYYADSVKGRFTISRDNAKNTVYLQLNSLKPEDTAVYYCAARYSPRGKRYDYWGQGTQVTVSS”: the “polyreactivity (PSR sort gate)” value is recorded as “high polyreactivity”.
“QVQLVESGGGLVQAGGSLRLSCDASGGIFYGYAMGWYRQAPGKERELVAAISDSGGSTYYSDSVKGRFTITRDNAKNNVYLQMNSLKPEDTAVYYCATDAPVGGYVSEGDYWGQGTQVTVSS”: the “polyreactivity (PSR sort gate)” value is “low polyreactivity”.
For the sequence “QVQLVESGGGLVQAGGSLRLSCDASGITYHNYAMGWYRQAPGKEREYVAAITRNTASSYYADSVKGRFSISRDKAKNTVYFQMNSLKPEDTAVYYCAATDKKHRTAYDSWGQGTQVTVSS”, the “polyreactivity (PSR sort gate)” value is listed as “low polyreactivity”.
For the sequence “QVQLVESGGGLVQAGGSLRLSCDASGLIFPWNSMGWYRQAPGQERELVAAINGRDGSTYYADSVKGRFTISRDNAKNTVYLQMNSLKPEDTAVFYCAKGPSGVRTYREYDSWGQGTQVTVSS”, the “polyreactivity (PSR sort gate)” value is listed as “low polyreactivity”.
Regarding “QVQLVESGGGLVQAGGSLRLSCDASGRIFGMYAMGWYRQSPGKEREFVAAISWRTGSTYYADSVKGRFTISRDNAKNTVYLQMNSLKPEDTAVYYCAAESAAKYGYWRQGTQVTVSS”, the “polyreactivity (PSR sort gate)” value is given as “high polyreactivity”.
On to “QVQLVESGGGLVQAGGSLRLSCDASGRIFRGYAMGWYRKAPGKERELVAAISGRGGRTNYADSVKGRFTISRDNAKNTVYLQMNSLKTEDTAVYYCAVKRLSYPYVGHYYFWGQGTQVTVSS”, for which the “polyreactivity (PSR sort gate)” value is given as “high polyreactivity”.
In the case of “QVQLVESGGGLVQAGGSLRLSCDASGRIFRVYAMGWYRPAPGKERELFAAISWSGGRTYYADSVKGRFTISRDNAKNTVYLQMNSLKPEDTAVYYCAAERGGPTYYSGGDYDYWGQGTQVTVSS”, the “polyreactivity (PSR sort gate)” value was “high polyreactivity”.
The result for “QVQLVESGGGLVQAGGSLRLSCDASGRIFRYNAMGWYRQAPGKEREFVAAITWRGGSTYYADSVKGRFTISRDNAKYTVYLQMNSLKPEDTAVYYCATRSPFGAAYEYGYWGQGTQVTVSS” reads “high polyreactivity”; that for “QVQLVESGGGLVQAGGSLRLSCDASGRIFSENAMGWYRQAPGKERELVDAITGNGGDTYYADSVKGRFTISRDNAKNTVYLQMNSLKPEDTAVYYCAAVTGGLGGDYWGQGTQVTVSS”, “low polyreactivity”; that for “QVQLVESGGGLVQAGGSLRLSCDASGRIFYANAIGWYRQAPGKEREFVAAITRSGGSTYYADSVKGRFTISRDNAKNTVYLQMNSLKPEETAVYYCAAQGGDVYGWRYYYWGQGTQVTVSS”, “low polyreactivity”.
As for “QVQLVESGGGLVQAGGSLRLSCDASGRIFYGYVMGWYRQAPGKERELVAAINQSGTSTYYADSVKGRFTISRDNAKNTVYLQMNSLKPEDTAVYYCAADQVGWTYDYWGQGTQVTVSS”, the “polyreactivity (PSR sort gate)” value was “low polyreactivity”.
Then “QVQLVESGGGLVQAGGSLRLSCDASGRTFASNVMGWYRQAPGKERELVAAISRRGGSTYYADSVKGRFTISRDNAKNTVYLQMNSLKPEDTAVYYCNADDKAQSDYWGQGTQVTVSS”, with “high polyreactivity”; and “QVQLVESGGGLVQAGGSLRLSCDASGRTFGQNAMGWYRQAPGTERELVDAISASGSNTYYADSVKGRFTISRDNAKNTVYLQMNSLKPEDTAVYYCAKQVYRPGQQSRYDYWGQGTQVTVSS”, with “low polyreactivity”.
Then “QVQLVESGGGLVQAGGSLRLSCDASGRTFGVYAMGWYRQAPGKERELVAAISTRGGSTYYADSVKGRFTISRDNAKNTVYLQMNSLKPEDTAVYYCAAEQYVWGYWFNYGYWGQGTQVTVSS”, with “high polyreactivity”.
As for “QVQLVESGGGLVQAGGSLRLSCDASGRTLGGYTMGWYRQAPGKERELVAAITTGGSTNYADSVKGRFTISRDNAKNTVYLQMNSLKPEDTAVYYCATDLVFDKRYWYDYWGQGTQVTVSS”, the “polyreactivity (PSR sort gate)” value is listed as “low polyreactivity”.
With “QVQLVESGGGLVQAGGSLRLSCDASGRTSGINAMGWYRQAPGKERELVAAISSGGRTYYADSVKGRFTISRDNAKNTVYLQMNSLKPEDTAVYYCAAVIHWSLYRRMEYWGQGTQVTVSS”, the “polyreactivity (PSR sort gate)” value is listed as “high polyreactivity”.
Then “QVQLVESGGGLVQAGGSLRLSCDASGRTYTGYAIGWYRQAPGKERELVAAISKSGGRTYYADSVKGRFTISRDYAKNTVYLQMNSLKPEDTAVYYCAKVETFLQIAYRRGYDSWGQGTQVTVSS”, with “low polyreactivity”.
With “QVQLVESGGGLVQAGGSLRLSCDASGSIFDGYGMGWYRQAPGKERELVASITWNDGSTYYADSVKGRFTISRDNAKNTVYLQMNSLKPEETAVYYCAADQWGYEYDYWGQGTQVTVSS”, the “polyreactivity (PSR sort gate)” value is recorded as “low polyreactivity”.
Take “QVQLVESGGGLVQAGGSLRLSCDASGSIFGWYAMGWYRQAPGKERELVAAITFSSVSTYYADSVKGRFTISRDNAKNTVYLLMNSLKPEDTAVYYCAAVVYYTFDYWGQGTQVTVSS”: the “polyreactivity (PSR sort gate)” value is given as “low polyreactivity”.
Take “QVQLVESGGGLVQAGGSLRLSCDASGSIFIYYAMGWYRQAPGKERELVAAIDYSGDSTYYADSVKGRFTISRDNAKNTVYGQMNSLKPEDTAVYYCARRGFLVHWPRPSYDYWGQGTQVTVSS”: the “polyreactivity (PSR sort gate)” value was “low polyreactivity”.
Regarding “QVQLVESGGGLVQAGGSLRLSCDASGSIFLFNAMGWYIQAPGKERELVASISRASSTSYADSVKGRFTISRDNAKNTVYLQMNSLKPEDTAVYYCAAVVASFEFRFDYWGQGTQVTVSS”, the “polyreactivity (PSR sort gate)” value is listed as “low polyreactivity”.
“QVQLVESGGGLVQAGGSLRLSCDASGSIFQNYAMGWYRQAPGKERELVAAINDDSTYYADSVKGRFTISRDNAKNTVYLQMNSLKPEDTAVYYCNAEDYVTLKIDLSWPYGYWGQGTQVTVSS”: the “polyreactivity (PSR sort gate)” value is recorded as “low polyreactivity”.
For “QVQLVESGGGLVQAGGSLRLSCDASGSIFSKYVMGCYRQAPGKERELVASITSGGSTNYADSVKGRFTISRDNAKNTVYLQMTSQKPEDTAVYFCAARAINTWYRSGVDDWCQGTQVTVSS”, the “polyreactivity (PSR sort gate)” value is “low polyreactivity”.
As for “QVQLVESGGGLVQAGGSLRLSCDASGSIFYDYAMGWYRQAPGKERELVAAITSDTTTNYADSVKGRFTISRDNAKNTVYLQMNSLKPEDTAVYYCNTPPQWLGRYITLTFDYWGQGTQVTVSS”, the “polyreactivity (PSR sort gate)” value is listed as “low polyreactivity”.
As for “QVQLVESGGGLVQAGGSLRLSCDASGSIFYRYAMGWYRQAPGKERELVASISSGVSTNYADSVKGRFTISRDNAKNTVYLQMNSLKPEDTAVYYCAAYYRGWSSSYWYPAYNYWGHGTQVTVSS”, the “polyreactivity (PSR sort gate)” value is given as “low polyreactivity”.
Take “QVQLVESGGGLVQAGGSLRLSCDASGSIIISYDMGWYRQAPGKERELVAAIRSRVGSTYYSDSVKGRFTISRDNAKNTVYLQMNSLKPEDTAVYYCAADWVWADFDYWGQGTNVTVSS”: the “polyreactivity (PSR sort gate)” value is on record as “low polyreactivity”.
Take “QVQLVESGGGLVQAGGSLRLSCDASGSIISYYTMGWYRQAPWKERELVAAISLTGGSTYYADSVKGRFTISRDNAKNTVYLQMNSLKPEDTAVYYCIAVRYASPYGYWGQGTLVTVSS”: the “polyreactivity (PSR sort gate)” value was “high polyreactivity”.
Then “QVQLVESGGGLVQAGGSLRLSCDASGSTFLTNTMGWYRQAPGKERELVAAISSGDSTYYADSVKGRFTISRDNAKNTVYLQLNSLKPEVTAVYYCARDGGWRNVPRDYWGQGTQVTVSS”, with “low polyreactivity”.
The result for “QVQLVESGGGLVQAGGSLRLSCDASGSTFPVNAMGWYRQAPGKERELVAAISSRGSSTYYADSVKGRFTISRDNAKNTVYLQMNSLKPEDTAVYYCAAPQRYPRFYYWGQGTQVTVSS” reads “high polyreactivity”.
In the case of “QVQLVESGGGLVQAGGSLRLSCDASGSTFRANAMGWYRQAPGKERELVAAISWSGGRTYYADSVKGRFTISRDNAKNTVYLQMNSLKPEYTAVYYCAAPKLTSYDSWGQGTQVTVSS”, the “polyreactivity (PSR sort gate)” value is on record as “high polyreactivity”.
On to “QVQLVESGGGLVQAGGSLRLSCDASGSTFVGYTMGWYRQAPGKERELVAAITWRGGITYYADSVKGLFTISRDNAKNTVYLQMKSLKPEDTAVYYCAGARYRHGRSGTYDVTGEYWGQGTQVTVSS”, for which the “polyreactivity (PSR sort gate)” value is on record as “high polyreactivity”.
For “QVQLVESGGGLVQAGGSLRLSCDASGSTFYPNAMGWYRQPPGKERELVAAITDSVCTTNYADSVKGRFTISRDNAKNTVYLQMNSLKPEDTAVYYCAKVKYYWNGYRYYYWGQGTQVTVSS”, the “polyreactivity (PSR sort gate)” value is given as “low polyreactivity”.
The result for “QVQLVESGGGLVQAGGSLRLSCDASGSTFYYNAMGWYRQAPGKERELVADISRGGSTYYADSVKGRFTISRDNAKNTVYLQMNSLKPEDTAVYDCAAQTYLLSQWWWFDIDYGYWGQGTQVTVSS” reads “low polyreactivity”; that for “QVQLVESGGGLVQAGGSLRLSCDASGTLSPYAMGWYRQAPGKERELVAVITSNTGRTYADSVKGRFTISRYNSKNTVYLQKNTLNPQDTAFFYCYWGQGTQVTVTS”, “low polyreactivity”; that for “QVQLVESGGGLVQAGGSLRLSCEASGSTFLRNAMGWYRQAPGKKGSWVATISYAGDSTYYADSVKGRFTLSRDNAKNTVYLQMNSLKPEDTAVYYCAASYSLTFWDKDDYWGQGTQVTVSS”, “low polyreactivity”.
Take “QVQLVESGGGLVQAGGSLRLSCGASGFIFVRYAMGWYRQAPGKERELVAAITKGGGRTYYADSVKGRFTISRDNAKNTVYLQMNSLKPEDTAVYYCATGGAHGRERDYGGQGTQVTVSS”: the “polyreactivity (PSR sort gate)” value is “high polyreactivity”.
Then “QVQLVESGGGLVQAGGSLRLSCGASGFTFSGNVMGWYRQAPGKEREFVAAITSRGGSSYYADSVKGRFTISRDNAKNTVYLQMNSLKPEDTAVYYCNRRRWYFFSLDYWGQGTQVTVSS”, with “high polyreactivity”.
The result for “QVQLVESGGGLVQAGGSLRLSCGASGLTFPLYAMGWYRQAPGKERELVAAITFSSGSTRYADSVKGRFTISRDNAKNTGSFQMNSLKPEDTALYYCAAVWYTYRTGPWYDYWGQGTQVTVSS” reads “high polyreactivity”.
For the sequence “QVQLVESGGGLVQAGGSLRLSCGASGNTFYPNAMGWYRQAPGKERELVAAITTSGVTTYYADSVKGSFTISRDNAKNTVYLQINSLKPEDTAVYYCAAYWSRDKYYYWGQGTQVTVSS”, the “polyreactivity (PSR sort gate)” value is “low polyreactivity”.
In the case of “QVQLVESGGGLVQAGGSLRLSCGASGRIFGRYAMGWYRQAPAKERELVAVITFSGGDTFYADSVKGRFTISRDNAKNTVYLQMNSLKPEDTAVYYCAKSQGFETYRNVSIFGYWGQGTQVTVSS”, the “polyreactivity (PSR sort gate)” value was “low polyreactivity”.
